Data as given in the supplement of paper PMC10567573.

B1: FUNDC2 (parent)
chain: YIKVDWQRVEKDMKKAKEQLKIRK
B2: NEK8 (parent)
chain: VTIKHVACGDFFTACLTDRGIIMT

Variants of: B1
Assay: protein stability index of a GFP-peptide fusion (GPS, HEK-293T) (PSI 1-6); higher = more stable
Details: c terminus: a fixed tail appended
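Further: lentivirally expressed fusions sorted by FACS into six bins by GFP to DsRed ratio, PSI derived from sequencing read proportions per bin multiplied by bin number.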

Protein stability index, by site and new letter:
R23: N 3.5 | H 1.9 | M 1.97 | D 2.06 | P 1.63 | W 1.59 | Y 1.67 | K 2.6 | G 1.69 | E 1.76 | I 2.79 | F 1.57 | S 2.02 | T 2.19 | Q 2.07 | A 2.08 | L 1.6 | C 1.57 | V 2.26
Q19: P 1.82 | K 1.32 | L 2.43 | W 1.79 | F 1.56 | I 1.49 | C 1.43 | D 1.98 | H 1.33 | R 1.33 | T 2.8 | M 2.57 | V 1.19 | A 1.86 | N 1.81 | E 2.68 | Y 1.8 | S 2.04
L20: H 1.71 | K 1.59 | W 2.65 | T 2.62 | V 1.77 | G 1.89 | E 2.4 | P 1.95 | F 4.29 | S 1.52 | N 1.49 | C 2 | A 2.3 | M 1.32 | Q 1.42 | Y 1.91 | I 2.42 | D 1.77 | R 1.6
K17: S 2.62 | P 1.79 | R 2.27 | W 1.66 | I 1.71 | H 1.94 | L 2.21 | V 1.64 | T 1.62 | G 2.69 | Y 2.37 | N 1.95 | Q 1.65 | M 2.83
K21: L 1.71 | H 1.74 | E 2.28 | A 1.87 | N 1.91 | Y 2.5 | M 1.96 | R 2 | I 1.68 | D 1.86 | G 2.13 | C 2.06 | P 1.84 | F 1.69 | T 1.87 | Q 1.62 | V 2.19 | W 2.06 | S 2.22
E18: M 1.59 | I 2.41 | Q 1.99 | S 2.46 | F 1.65 | D 1.44 | N 1.72 | V 1.69 | W 1.16 | P 2.48 | L 2.12 | Y 1.84 | K 1.84 | R 1.57 | H 2.41 | A 1.97
I22: A 1.21 | H 1.88 | Q 2.51 | R 1.29 | S 2.01 | D 1.92 | C 1.47 | T 1.57 | W 2.11 | M 1.97 | G 1.83 | E 2.65 | N 1.98 | L 2.12 | Y 1.88 | P 1.49 | F 2.12 | K 2.25
K24: Q 1.31 | F 1.52 | S 1.67 | A 2.81 | D 2.02 | V 2.61 | P 1.6 | C 2.47 | T 1.76 | H 2.12 | G 1.85 | N 2.07 | L 2.16 | E 2.03 | R 1.12 | W 1.69 | M 1.31 | Y 1.38

Variants of: B2
Assay: as above
Details: c terminus: a fixed tail appended

Protein stability index, by site and new letter:
K4: A 4.56 | H 2.81 | N 2.03 | R 2.47 | P 2.13 | F 2.88 | E 1.58 | I 2.27 | G 3.43 | S 2.57 | D 2.87 | W 3.87 | V 1.74 | M 1.33 | Y 2.75 | L 3.2 | T 2.17 | C 3.59
G9: K 2.98 | H 2.74 | E 2.66 | C 1.88 | Y 3.79 | M 3.93 | A 2.32 | T 3.5 | I 3.19 | D 3 | W 3.39 | R 3.64 | F 2.38 | S 3.21
H5: D 3.02 | P 3.52 | F 2.88 | K 1.19 | R 3.65 | S 3.48 | C 2.12 | L 1.99 | M 5.14 | W 2.46 | I 4.16 | T 3.55
D10: M 3.29 | V 2.91 | W 2.4 | C 2.56 | I 3.11 | H 3.8 | R 2.3 | L 2.26 | K 3.54 | N 1.59 | T 2.71 | Y 2.44 | E 3.23
I3: T 3.18 | E 2.6 | R 2.22 | G 2.58 | H 2.67 | K 1.92 | N 2.55 | V 2.27 | A 1.28 | D 3.11 | Y 2.57 | Q 2.49 | P 2.31 | L 2.32 | S 2.69 | F 3.2
C8: F 2.28 | T 2.44 | E 3.57 | N 3.4 | I 2.51 | P 2.4 | W 2.41 | V 2.48 | L 3.14 | Q 3.4 | D 3.33 | R 3.18 | A 3.3 | Y 3.47
V6: F 2.71 | R 3.07 | N 3.92 | I 3.76 | P 4.25 | T 2.61 | A 2.86 | K 2.63 | S 2.55 | Y 1.72 | G 2.57 | H 2.85 | D 1.35 | E 3.14 | L 2.85 | W 4.09
A7: M 2.95 | D 2.43 | P 1.72 | L 2.33 | E 2.69 | I 2.61 | Y 3.2 | K 3.25 | S 1.57 | T 2.88 | C 1.98 | Q 3.77
T13: K 3.17 | C 2.13 | N 1.86 | I 1.31 | F 2.81 | S 1.28 | M 2.39 | L 2.11 | D 3.61 | V 2.64 | Y 3.95 | P 3.32 | H 3.07 | Q 2.47
V1: K 1.91 | T 1.54 | E 1.45 | I 2.71 | A 2.57 | C 2.23 | S 3.58 | Y 3.81 | M 3.97 | F 1.99 | H 2.87 | Q 1.59 | R 2.44 | W 4.31 | N 2.51 | P 1.33 | G 3.39
F11: G 1.8 | Q 3.07 | V 2.76 | E 2.9 | S 2.05 | Y 2.81 | A 2.49 | K 2.13 | M 3.07 | P 3.05 | N 2.85 | D 1.46 | H 1.88 | C 1.91 | L 2.23 | W 4.01 | T 2.82 | I 4.45
F12: V 2.77 | E 1.72 | I 3.98 | T 3.71 | M 2.61 | P 1.8 | C 1.53 | L 1.79 | R 2.21 | W 2.6 | D 2.2 | N 2.67 | S 3.05 | Y 2.02 | K 1.81 | G 2.17
T2: F 3.64 | I 2.48 | D 2.1 | Y 3.11 | M 3.25 | W 2.38 | K 2.06 | G 3.03 | P 3.12 | R 2.24 | S 2.88 | C 2 | E 2.31
